Tests used:
[1] = molecular target: T1, TFPI (tissue factor pathway inhibitor, full-length) (Homo sapiens, UniProt P10646 SEQ:1-276); experiment: competition; dot-blot; details: tags: American Diagnostica 4500PC/4900PC, E. coli expressed
Experimental: Each molecule was evaluated for binding to tissue factor pathway inhibitor (TFPI) in a binding-competition assay. For these experiments, 10 nM human TFPI (American Diagnostica, Stamford, Conn., catalog #4500PC) was incubated with trace amounts of radiolabeled ARC17480 and 5000 nM, 1666.67 nM, 555.56 nM, 185.19 nM, 61.73 nM, 20.58 nM, 6.86 nM, 2.29 nM, 0.76 nM or 0.25 nM of unlabeled competitor aptamer. ARC17480 was included as a competitor in every experiment as a control. For each molecule, the percentage of radiolabeled ARC17480 bound at each competitor aptamer concentration was used for analysis. The percentage of radiolabeled ARC17480 bound was plotted as a function of aptamer concentration and fit to the equation y=(max/(1+x/IC₅₀))+int, where y=the percentage of radiolabeled ARC17480 bound, x=the concentration of aptamer, max=the maximum radiolabeled ARC17480 bound, and int=the y-intercept, to generate an IC₅₀ value for binding-competition. The IC₅₀ of each aptamer was compared to the IC₅₀ of ARC17480 that was evaluated in the same experiment. A substitution was considered tolerated in the binding-competition assay if the IC₅₀ of that molecule was not more than 5-fold greater than that of ARC17480 evaluated in the same experiment. Tolerated substitutions are indicated in Table 37 as meeting the assay criteria (“yes”) or not meeting the assay criteria (“no”).

[2] = molecular target: T1, TFPI (tissue factor pathway inhibitor, …); experiment: competition; fails binding-competition criterion; details: tags: American Diagnostica 4500PC/4900PC, E. coli expressed
Experimental: Each molecule was evaluated for binding to tissue factor pathway inhibitor (TFPI) in a binding-competition assay. For these experiments, 10 nM human TFPI (American Diagnostica, Stamford, Conn., catalog #4500PC) was incubated with trace amounts of radiolabeled ARC17480 and 5000 nM, 1666.67 nM, 555.56 nM, 185.19 nM, 61.73 nM, 20.58 nM, 6.86 nM, 2.29 nM, 0.76 nM or 0.25 nM of unlabeled competitor aptamer. ARC17480 was included as a competitor in every experiment as a control. For each molecule, the percentage of radiolabeled ARC17480 bound at each competitor aptamer concentration was used for analysis. The percentage of radiolabeled ARC17480 bound was plotted as a function of aptamer concentration and fit to the equation y=(max/(1+x/IC₅₀))+int, where y=the percentage of radiolabeled ARC17480 bound, x=the concentration of aptamer, max=the maximum radiolabeled ARC17480 bound, and int=the y-intercept, to generate an IC₅₀ value for binding-competition. The IC₅₀ of each aptamer was compared to the IC₅₀ of ARC17480 that was evaluated in the same experiment. A substitution was considered tolerated in the binding-competition assay if the IC₅₀ of that molecule was not more than 5-fold greater than that of ARC17480 evaluated in the same experiment. Tolerated substitutions are indicated in Table 38 as meeting the assay criteria (“yes”) or not meeting the assay criteria (“no”).

T1 sequence (P10646 29-304): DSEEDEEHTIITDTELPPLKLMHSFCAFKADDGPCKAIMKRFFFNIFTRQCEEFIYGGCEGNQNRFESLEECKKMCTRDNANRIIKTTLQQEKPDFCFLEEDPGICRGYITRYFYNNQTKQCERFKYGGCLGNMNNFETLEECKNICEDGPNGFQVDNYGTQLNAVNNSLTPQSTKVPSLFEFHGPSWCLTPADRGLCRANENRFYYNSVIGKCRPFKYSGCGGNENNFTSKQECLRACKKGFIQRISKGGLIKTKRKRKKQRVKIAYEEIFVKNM

Binder	binding signal [1] [fold IC50 vs ARC17480]	binding signal [2]
GGAAUAUACUUGGCUCGUUAGGUGCGUAUAUA (XNA, 2'-OMe except dC9, dC14, dC16, dC25 and dU29; 3' idT) [ARC33876]	≤ 5	
GGAAUAUACUUGGCUCGUUAGGUGCGUAUAUA (XNA, 2'-OMe except dC9, dC14, dC16, dC25 and dA3; 3' idT) [ARC19450]	≤ 5	
GGAAUAUACUUGGCUCGUUAGGUGCGUAUAUA (XNA, 2'-OMe except dC9, dC14, dC16, dC25 and dA32; 3' idT) [ARC19475]	≤ 5	
GGAAUAUACUUGGCUCGUUAGGUGCGTAUAUA (XNA, 2'-OMe except dC9, dC14, dC16, dC25 and dT27; 3' idT) [ARC19470]	≤ 5	
GGAAUAUACUUGGCUCGUUAGGUGCGUAUAUA (XNA, 2'-OMe except dC9, dC14, dC16, dC25 and dU23; 3' idT) [ARC33874]	≤ 5	
GGAAUAUACUTGGCUCGUUAGGUGCGUAUAUA (XNA, 2'-OMe except dC9, dC14, dC16, dC25 and dT11; 3' idT) [ARC19457]	≤ 5	
GGAAUAUACUUGGCUCGUUAGGTGCGUAUAUA (XNA, 2'-OMe except dC9, dC14, dC16, dC25 and dT23; 3' idT) [ARC19467]	≤ 5	
GGAAUAUACUUGGCUCGUUAGGUGCGUAUAUA (XNA, 2'-OMe except dC9, dC16, dC25; 2'-F C14; 3' idT) [ARC19494]	≤ 5	
GGAAUAUACUUGGCUCGUUAGGUGCGUAUAUA (XNA, 2'-OMe except dC9, dC14, dC25; 2'-F C16; 3' idT) [ARC19495]	≤ 5	
GGAAUAUACUUGGCUCGUUAGGUGCGUAUAUA (XNA, 2'-OMe except dC9, dC14, dC16, dC25 and dU19; 3' idT) [ARC33873]	≤ 5	
GGAAUAUACUUGGCUCGUUAGGUGCGUAUAUA (XNA, 2'-OMe except dC9, dC14, dC16, dC25 and dA4; 3' idT) [ARC19451]	≤ 5	
GGAAUAUACUUGGCUCGUUAGGUGCGUAUAUA (XNA, 2'-OMe except dC9, dC14, dC16, dC25 and dG13; 3' idT) [ARC19459]	≤ 5	
GGAAUAUACUUGGCUCGUUAGGUGCGUAUAUA (XNA, 2'-OMe except dC9, dC14, dC16, dC25 and dA28; 3' idT) [ARC19471]	≤ 5	
GGAAUAACUUGGCUCGUUAGGUGCGUAUAUA (mixed, 2'-OMe A/G/U, 2'-deoxy C, 3' idT) [ARC33123]		> 5 fold IC50 of ARC17480
GGAAUAUCUUGGCUCGUUAGGUGCGUAUAUA (mixed, 2'-OMe A/G/U, 2'-deoxy C, 3' idT) [ARC33124]		> 5 fold IC50 of ARC17480
GGAAUAUAUUGGCUCGUUAGGUGCGUAUAUA (mixed, 2'-OMe A/G/U, 2'-deoxy C, 3' idT) [ARC33125]		> 5 fold IC50 of ARC17480
GGAAUAUACUGGCUCGUUAGGUGCGUAUAUA (mixed, 2'-OMe A/G/U, 2'-deoxy C, 3' idT) [ARC33126]		> 5 fold IC50 of ARC17480
GGAAUAUACUUGGCUCGUUAGGGCGUAUAUA (mixed, 2'-OMe A/G/U, 2'-deoxy C, 3' idT) [ARC33135]		> 5 fold IC50 of ARC17480
GGAAUAUACUUGCUCGUUAGGUGCGUAUAUA (mixed, 2'-OMe A/G/U, 2'-deoxy C, 3' idT) [ARC33127]		> 5 fold IC50 of ARC17480
GGAAUAUACUUGGCCGUUAGGUGCGUAUAUA (mixed, 2'-OMe A/G/U, 2'-deoxy C, 3' idT) [ARC33129]		> 5 fold IC50 of ARC17480
GGAAUAUACUUGGUCGUUAGGUGCGUAUAUA (mixed, 2'-OMe A/G/U, 2'-deoxy C, 3' idT) [ARC33128]		> 5 fold IC50 of ARC17480
GGAAUAUACUUGGCUGUUAGGUGCGUAUAUA (mixed, 2'-OMe A/G/U, 2'-deoxy C, 3' idT) [ARC33130]		> 5 fold IC50 of ARC17480
GGAAUAUACUUGGCUCUUAGGUGCGUAUAUA (mixed, 2'-OMe A/G/U, 2'-deoxy C, 3' idT) [ARC33131]		> 5 fold IC50 of ARC17480
GGAAUAUACUUGGCUCGUUAGUGCGUAUAUA (mixed, 2'-OMe A/G/U, 2'-deoxy C, 3' idT) [ARC33134]		> 5 fold IC50 of ARC17480
GGAAUAUACUUGGCUCGUUGGUGCGUAUAUA (mixed, 2'-OMe A/G/U, 2'-deoxy C, 3' idT) [ARC33133]		> 5 fold IC50 of ARC17480

— US20110281938, “APTAMERS TO TISSUE FACTOR PATHWAY INHIBITOR AND THEIR USE AS BLEEDING DISORDER THERAPEUTICS” (Baxter Healthcare S.A., published 2011)
